Results reported in patent US20110129459A1 (Chugai, published 2011).
Substitutions are numbered along the chain they refer to. Where two headings read alike, the source gives them in different places.

Columns and labels:
[1] = target: T1, rhNR10 (recombinant human NR10) (human, UniProt Q8NI17 20-519, limits assumed); assay: SPR, Biacore T100; antibody captured on Protein A, rhNR10 as analyte
T1 construct: also called IL-31 receptor; IL31RA
T1 sequence: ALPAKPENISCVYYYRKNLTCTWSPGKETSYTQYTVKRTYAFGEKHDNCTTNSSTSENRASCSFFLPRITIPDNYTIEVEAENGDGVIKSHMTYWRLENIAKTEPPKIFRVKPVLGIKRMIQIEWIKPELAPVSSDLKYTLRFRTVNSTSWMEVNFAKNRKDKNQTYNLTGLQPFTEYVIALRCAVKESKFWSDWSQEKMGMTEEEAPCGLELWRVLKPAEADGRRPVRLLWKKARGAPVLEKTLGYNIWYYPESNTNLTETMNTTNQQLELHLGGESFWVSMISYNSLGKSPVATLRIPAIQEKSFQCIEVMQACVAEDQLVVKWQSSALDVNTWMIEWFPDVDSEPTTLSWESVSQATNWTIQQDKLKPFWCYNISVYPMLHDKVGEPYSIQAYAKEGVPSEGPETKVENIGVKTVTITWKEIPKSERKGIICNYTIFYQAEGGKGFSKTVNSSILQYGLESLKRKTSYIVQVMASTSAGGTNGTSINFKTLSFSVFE
Protocol: (§1) Kinetic analysis of the antigen-antibody reaction was carried out using Biacore T100 (GE Healthcare Biosciences). The antigen-antibody interaction was measured by immobilizing rec-Protein A (hereinafter Protein A) (ZYMED) onto a sensor chip, capturing an antibody on the immobilized Protein A, and then reacting the antigen as an analyte. Various concentrations of rhNR10 were used as the antigen. The kinetic parameters, association rate constant kₐ (1/Ms) and dissociation rate constant kd (1/s), were calculated from the sensorgrams obtained by the measurement. Then, KD (M) was determined based on the rate constants. Each parameter was determined using Biacore T100 Evaluation Software version 1.1 (GE Healthcare Biosciences).
(§2) The running buffer used was HBS-EP+. Each antibody was prepared at 0.25 μg/ml, or prepared so that about 100 RU would bind to Protein A. rhNR10 used as an analyte was prepared at 0, 38.5, 77.0, and 154 nM, or at 0, 19.25, and 77.01 nM using HBS-EP+. In the measurement, first, the antibody solution was captured on Protein A, and an analyte solution was reacted at a flow rate of 20 μL/min for three minutes. Then, the solution was switched to HBS-EP+, and the dissociation phase was measured for five minutes. After measurement of the dissociation phase, the sensor chip was regenerated by washing with 10 mM glycine-HCl (pH 1.5). The obtained sensorgrams were kinetically analyzed using the Biacore-specific data analysis software, Biacore T100 Evaluation Software Version 1.1.

[2] = target: T2, soluble human FcRn (FcRn extracellular domain / beta2-microglobulin complex) (human, UniProt P55899 24-290; P61769 21-119); assay: SPR, Biacore 3000; antibody captured on chip, soluble human FcRn as analyte, steady state affinity, pH 6.0
T2 construct: The expression constructs contain the signal regions (FcRn Met1-Leu290; beta2-microglobulin Met1-Met119); also called hFcRn
Protocol: The binding to human FcRn was assessed using Biacore 3000. An antibody was bound to Protein L or rabbit anti-human IgG Kappa chain antibody immobilized onto a sensor chip, human FcRn was added as an analyte for interaction with the antibody, and the affinity (KD) was calculated from the amount of bound human FcRn. Specifically, Protein L was immobilized onto sensor chip CM5 (BIACORE) by the amine coupling method using 50 mM Na-phosphate buffer (pH 6.0) containing 150 mM NaCl as the running buffer. Then, an antibody was diluted with the running buffer containing 0.02% Tween20, and injected and allowed to bind to the chip. Human FcRn was then injected to assess the binding activity of the antibody to the human FcRn.
The affinity was calculated using BIAevaluation software. The obtained sensorgram was used to calculate the amount of hFcRn bound to the antibody immediately before the end of human FcRn injection. This was fitted by the steady state affinity method to calculate the affinity of human FcRn for the antibody.

[3] = target: T1, rhNR10 (recombinant human NR10); assay: SPR, Biacore T100; antibody captured on Protein A, rhNR10 as analyte; remark: listed apart in the source
Protocol: as §1, §2

[4] = target: T1, rhNR10 (recombinant human NR10); assay: as above; remark: listed apart in the source
Protocol: as §1, §2

[5] = target: T1, rhNR10 (recombinant human NR10); assay: as above; remark: listed apart in the source
Protocol: as §1, §2

[6] = target: T1, rhNR10 (recombinant human NR10); assay: as above; remark: listed apart in the source
Protocol: as §1, §2

T2 sequence (P55899 24-290 limits assumed, chain 1 of 2): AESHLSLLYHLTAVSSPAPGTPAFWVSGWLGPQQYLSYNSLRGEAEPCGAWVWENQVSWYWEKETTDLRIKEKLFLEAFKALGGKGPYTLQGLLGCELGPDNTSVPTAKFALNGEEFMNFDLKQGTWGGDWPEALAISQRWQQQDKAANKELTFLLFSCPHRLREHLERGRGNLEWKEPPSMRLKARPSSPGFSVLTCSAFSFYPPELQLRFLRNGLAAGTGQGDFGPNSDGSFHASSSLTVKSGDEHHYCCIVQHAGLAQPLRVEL
T2 sequence (P61769 21-119 limits assumed, chain 2 of 2): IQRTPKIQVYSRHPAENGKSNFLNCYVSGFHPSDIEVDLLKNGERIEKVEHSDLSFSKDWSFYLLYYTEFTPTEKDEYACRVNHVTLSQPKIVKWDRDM

B1: H0L0-M58 (antibody)
heavy: QVQLVQSGAEVKKPGASVKVSCKASGYTFTGYIMNWVRQAPGQGLEWMGLINPYNGGTSYNQKFKGRVTITADESTSTAYMELSSLRSEDTAVYYCARDGYDDGPYTMDYWGQGTLVTVSSASTKGPSVFPLAPSSKSTSGGTAALGCLVKDYFPEPVTVSWNSGALTSGVHTFPAVLQSSGLYSLSSVVTVPSSNFGTQTYTCNVDHKPSNTKVDKTVERKSCVECPPCPAPPVAGPSVFLFPPKPKDTLMISRTPEVTCVVVDVSQEDPEVQFNWYVDGVEVHNAKTKPREEQFNSTFRVVSVLTVVHQDWLNGKEYKCKVSNKGLPAPIEKTISKTKGQPREPQVYTLPPSQEEMTKNQVSLTCLVKGFYPSDIAVEWESNGQPENNYKTTPPMLDSDGSFFLYSKLTVDKSRWQEGNVFSCSVMHEALHNHYTQKSLSLSP
light: DIQMTQSPSSLSASVGDRVTITCRTSENIYSFLAWYQQKPGKAPKLLIYNAKTLAKGVPSRFSGSGSGTDFTLTISSLQPEDFATYYCQHHYESPLTFGGGTKVEIKRTVAAPSVFIFPPSDEQLKSGTASVVCLLNNFYPREAKVQWKVDNALQSGNSQESVTEQDSKDSTYSLSSTLTLSKADYEKHKVYACEVTHQGLSSPVTKSFNRGEC
notes: also called H0L0 (H chain, H0-M58)
- Kd [1]: 4.8 nM
- koff [1]: 0.00078 s⁻¹
- kon [1]: 160000 M⁻¹ s⁻¹
- Kd [2]: 910 nM
- Kd [3]: 4.8 nM
- koff [3]: 0.00087 s⁻¹
- kon [3]: 180000 M⁻¹ s⁻¹
- Kd [4]: 4.8 nM
- koff [4]: 0.00069 s⁻¹
- kon [4]: 140000 M⁻¹ s⁻¹
- Kd [5]: 4.2 nM
- koff [5]: 0.00088 s⁻¹
- kon [5]: 210000 M⁻¹ s⁻¹

B2: H0L0-IgG1 (antibody)
heavy: not shown
light: B1 light
- Kd [2]: 1070 nM

B3: huPM1-M58 (humanized anti-IL-6 receptor antibody with constant region M58) (antibody)
heavy: QVQLQESGPGLVRPSQTLSLTCTVSGYSITSDHAWSWVRQPPGRGLEWIGYISYSGITTYNPSLKSRVTMLRDTSKNQFSLRLSSVTAADTAVYYCARSLARTTAMDYWGQGSLVTVSSASTKGPSVFPLAPSSKSTSGGTAALGCLVKDYFPEPVTVSWNSGALTSGVHTFPAVLQSSGLYSLSSVVTVPSSNFGTQTYTCNVDHKPSNTKVDKTVERKSCVECPPCPAPPVAGPSVFLFPPKPKDTLMISRTPEVTCVVVDVSQEDPEVQFNWYVDGVEVHNAKTKPREEQFNSTFRVVSVLTVVHQDWLNGKEYKCKVSNKGLPAPIEKTISKTKGQPREPQVYTLPPSQEEMTKNQVSLTCLVKGFYPSDIAVEWESNGQPENNYKTTPPMLDSDGSFFLYSKLTVDKSRWQEGNVFSCSVMHEALHNHYTQKSLSLSP
light: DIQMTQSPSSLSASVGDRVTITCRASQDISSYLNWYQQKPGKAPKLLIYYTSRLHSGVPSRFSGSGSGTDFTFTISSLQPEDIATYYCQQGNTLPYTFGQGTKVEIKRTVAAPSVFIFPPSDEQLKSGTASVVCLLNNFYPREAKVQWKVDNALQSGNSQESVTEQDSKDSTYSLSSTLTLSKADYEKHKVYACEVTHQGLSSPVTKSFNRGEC
- Kd [2]: 1170 nM
- fold binding activity relative to huPM1-IgG1 [2]: ~1.4 fold

B4: Ha401La402 (Ha401-SKSC / La402) (antibody, V domains shown)
VH: QVQLVQSGAEVKKPGASVKVSCKASGYTFTGYVINWVRQAPGQGLEWMGLINPYNGGTDYNQKFKGRVTITADESTSTAYMELSSLRSEDTAVYYCARDGYDDGPYTMDYWGQGTLVTVSS
VL: DIQMTQSPSSLSASVGDRVTITCQTSENIYRFVAWYQQKPGKAPKLLIYNAKTLAKGVPSRFSGSGSGTDFTLTISSLQPEDFATYYCQHHYDSPLTFGGGTKVEIKR
- Kd [6]: 0.5 nM
- koff [6]: 0.00029 s⁻¹
- kon [6]: 580000 M⁻¹ s⁻¹

B5: H0L12 (H0-M58 / L12) (antibody, V domains shown)
VH: B4 VH with V33I, I34M, D59S
VL: B4 VL with N28D, R31S, K52Q, L54E, K56Q
- Kd [1]: 2 nM
- koff [1]: 0.00074 s⁻¹
- kon [1]: 380000 M⁻¹ s⁻¹
- fold affinity relative to H0L0 [3]: ~2 fold

B6: H17L11 (H17-M58 / L11) (antibody, V domains shown)
VH: B4 VH with I34L, Q62P, K63Q, K65Q, G66D
VL: B4 VL with N28D, K52Q, L54E, K56Q
- Kd [4]: 0.62 nM
- koff [4]: 0.00026 s⁻¹
- kon [4]: 430000 M⁻¹ s⁻¹
